Measurements taken from publication PMC11784139.
Changes are numbered by the printed parent chain.

Columns and labels:
Experiment in all cases: EMSA
Conditions in all cases: EMSA: 5 mM Tris-HCl pH 7.5, 0.1 mM EDTA, 5 mM MgCl2, 10 mM KCl, 0.2 mM DTT, 30 C, 30 min, native PAGE in 0.5x TBE; MST: 50 mM PBS pH 7.2-7.4, temperature not …
[1] = test system: T1, 6xHis-APR1 F314S F314S (Acinetobacter venetianus RAG-1), ORF:d17a4b85
T1 sequence: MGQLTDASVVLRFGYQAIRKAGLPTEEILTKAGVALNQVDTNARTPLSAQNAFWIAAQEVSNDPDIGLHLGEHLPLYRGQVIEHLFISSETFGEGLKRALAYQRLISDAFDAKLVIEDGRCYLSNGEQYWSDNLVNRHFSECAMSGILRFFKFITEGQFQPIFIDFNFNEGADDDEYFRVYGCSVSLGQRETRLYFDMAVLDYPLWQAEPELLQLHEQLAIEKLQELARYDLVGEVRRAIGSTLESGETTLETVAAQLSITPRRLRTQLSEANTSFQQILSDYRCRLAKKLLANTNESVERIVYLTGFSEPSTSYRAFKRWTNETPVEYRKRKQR

[2] = test system: T2, 6xHis-APR1 F318S F318S (Acinetobacter venetianus RAG-1), ORF:d17a4b85
T2 sequence: T1 sequence with S314F, F318S

[3] = test system: T3, 6xHis-APR1 T306L T306L (Acinetobacter venetianus RAG-1), ORF:d17a4b85
T3 sequence: T1 sequence with T306L, S314F

[4] = test system: T4, 6xHis-APR1 V303E V303E (Acinetobacter venetianus RAG-1), ORF:d17a4b85
T4 sequence: T1 sequence with V303E, S314F

[5] = test system: T5, MBP-APR1 L265S L265S (Acinetobacter venetianus RAG-1), ORF:d17a4b85
T5 sequence: T1 sequence with L265S, S314F

## AGCCTACCTGATGATCAAATTGGAAAGGCGCAAATTATAGTCAATTTATTTGAAATTTACAAGACGCTCTCTTAGCAAAGCTTGTACAGATGAATTGGAAAAAACTGTCAGACAATCCTCATTTTTTTTTAACAAAAGAAGCAGAATAGTGTTGTCAGTTTGGTCAATCAACGTTAATCTAAAATTATTGTTTATTGTCACAATAACGTATCTACAGGGAAGGGCACTGC (double strand) [apR1 promoter]
[1]
  binding: no binding
[2]
  binding: no binding
[3]
  binding: binds
[4]
  binding: no binding
[5]
  binding: no binding
